Common to all, as to assay: purified protein
Format in all cases: biochemical, Chromohalobacter israelensis

Substrate in data set [1]: N[C@@H](CCC(=O)O)C(=O)O
The settings on record: 20 mM ethanolamine, 5 mM ATP, 15 mM MgCl2, pH 7.9, 25 °C.

Substrate in data set [2]: C[C@H](N)CO
To be noted: 50 mM L-glutamate, 5 mM ATP, 15 mM MgCl2, pH 7.9, 25 °C.

Substrate in data set [3]: NCCO
The settings on record: 50 mM L-glutamate, 5 mM ATP, 15 mM MgCl2, pH 7.9, 25 °C.

The term Km denotes the substrate concentration at which the rate is half of its maximum. As a reminder, the kcat is the maximal rate divided by the concentration of active sites. One may read the kcat/Km as the second-order rate constant that governs catalysis at low substrate concentration.

B1: Csal_0679 (Chromohalobacter israelensis DSM 3043) (protein)
chain: MTNTLALDDLKTRVESGEIDTVLVCIVDMQGRLMGKRLHARHFVDHGWEETHCCNYLLATDLEMATPGGYASTSWQAGYGDYIMKPDLATLRCVPWLEGTAMVLCDLLDHRTHAEVPHAPRAILKRQLARLEAMGLEAIMATELEFFLFEKSLDEIRKGRFRDLQPISGYNEDYHIFQTTKEEHVLRPLRNHLHAAGIPVEGTKGEAGAGQEELNIRCAKALDTADYHTIAKHATKEIAWQQGRAVTFLSKWHHAHAGSSSHIHQSLWKQGLPAFHDERDALGMSALMKHYLAGLLKYAPDYTYFLAPYLNSYKRFQKGTFAPTRTVWSVDNRTAGFRLCAEGTRAVRIECRIGGSDLNPYLAMAGQLAAGIKGIEECLALPPPAEGDTYEGGSGLIPQNLRDAMEALRGSTMLREAMGEDVVDHYVRAAEVELEDFQRVVSDYEVARGFERC
Regarding B1, in data set [1], the Michaelis constant (Km) came to 7800 ± 1000 µM, the catalytic constant (kcat) amounted to 0.4 ± 0.02 s⁻¹ and the specificity constant (kcat/Km) is 51 M⁻¹ s⁻¹. Besides, in data set [2], the Michaelis constant (Km) is 100 ± 10 µM, the catalytic constant (kcat) came out at 0.35 ± 0.01 s⁻¹ and the kcat/Km was determined as 3400 M⁻¹ s⁻¹. Moreover, in data set [3], the Michaelis-Menten constant (Km) amounted to 34 ± 4 µM, the kcat is 0.38 ± 0.009 s⁻¹ and the kcat/Km worked out at 11000 M⁻¹ s⁻¹.
